Data on 75 variants can be found in paper PMC12102759 (2025).

B1: RNF115 peptide 67-82 (E3 ubiquitin-protein ligase RNF115), 16-mer library wild type / MDM2 SWIB (MDM2 SWIB/MDM2 domain, residues 17-125) (parent complex)
chain 1: TTTHFAELWGHLDHTM
chain 2: SQIPASEQETLVRPKPLLLKLLKSVGAQKDTYTMKEVLFYLGQYIMTKRLYDEKQQHIVYCSNDLLGDLFGVPSFSVKEHRKIYTMIYRNLVVVNQQESSDSGTSVSEN
B2: PIP5K1C peptide 642-657 (Phosphatidylinositol 4-phosphate 5-kinase type-1 gamma), 16-mer library wild type / TLN1 PTB (TLN1 Phosphotyrosine-binding (PTB) domain, residues 309-401) (parent complex)
chain 1: TDERSWVYSPLHYSAQ
chain 2: GVSFFLVKEKMKGKNKLVPRLLGITKECVMRVDEKTKEVIQEWNLTNIKRWAASPKSFTLDFGDYQDGYYSVQTTEGEQIAQLIAGYIDIILK

The variants in one test derive from B1. The test is described as follows: proteomic peptide phage display deep mutational scan (ProP-PD DMS): M13 P8 16-mer library selected against immobilised GST-tagged bait for four days (rounds), NGS of the eluted pools per day and pseudo-replica; bait immobilised on MaxiSorp plates (10 µg), library pre-cleared on GST, 2 h binding at 4 °C, five washes; one round per day, days 1-4; value from days 2 and 3.
Turning to chain 1 H14N, the screen value was 0.00027 average fractional NGS count over selection days 2 and 3 (reads of this peptide / all reads for the bait, averaged over ….
chain 1 H14P: the screen value was 0.000471 average fractional NGS count over selection days 2 and 3 (reads of this peptide / all reads for the bait, averaged over ….
Same read-out and setting: the value for chain 1 H14W was 0.00227 average fractional NGS count over selection days 2 and 3 (reads of this peptide / all reads for the bait, averaged over …; that for chain 1 H14Q was 0.000199 average fractional NGS count over selection days 2 and 3 (reads of this peptide / all reads for the bait, averaged over …; that for chain 1 H14V was 0.00211 average fractional NGS count over selection days 2 and 3 (reads of this peptide / all reads for the bait, averaged over ….
Same read-out and setting: under chain 1 H14T stands 0.000601 average fractional NGS count over selection days 2 and 3 (reads of this peptide / all reads for the bait, averaged over …; under chain 1 H14I, 0.00129 average fractional NGS count over selection days 2 and 3 (reads of this peptide / all reads for the bait, averaged over ….
Same read-out and setting: under chain 1 H14L stands 0.00317 average fractional NGS count over selection days 2 and 3 (reads of this peptide / all reads for the bait, averaged over …; under chain 1 T2P, 0.000494 average fractional NGS count over selection days 2 and 3 (reads of this peptide / all reads for the bait, averaged over …; under chain 1 T2Q, 0.00139 average fractional NGS count over selection days 2 and 3 (reads of this peptide / all reads for the bait, averaged over ….
Consider chain 1 T2V, for which the screen value is 0.000589 average fractional NGS count over selection days 2 and 3 (reads of this peptide / all reads for the bait, averaged over ….
The same measure, in the same setting: under chain 1 T2E stands 0.0056 average fractional NGS count over selection days 2 and 3 (reads of this peptide / all reads for the bait, averaged over ….
Consider chain 1 T2A, for which the screen value is 0.00136 average fractional NGS count over selection days 2 and 3 (reads of this peptide / all reads for the bait, averaged over ….
On the same count and under the same terms, the value for chain 1 T2I was 0.00157 average fractional NGS count over selection days 2 and 3 (reads of this peptide / all reads for the bait, averaged over …; that for chain 1 T2Y was 0.000215 average fractional NGS count over selection days 2 and 3 (reads of this peptide / all reads for the bait, averaged over …; that for chain 1 T2G was 0.00135 average fractional NGS count over selection days 2 and 3 (reads of this peptide / all reads for the bait, averaged over ….
For chain 1 T2H, the screen value was 0.000527 average fractional NGS count over selection days 2 and 3 (reads of this peptide / all reads for the bait, averaged over ….
With chain 1 T2S, the screen value is 0.000484 average fractional NGS count over selection days 2 and 3 (reads of this peptide / all reads for the bait, averaged over ….
Turning to chain 1 L12N, the screen value is 0.000651 average fractional NGS count over selection days 2 and 3 (reads of this peptide / all reads for the bait, averaged over ….
As for chain 1 L12M, the screen value is 0.000189 average fractional NGS count over selection days 2 and 3 (reads of this peptide / all reads for the bait, averaged over ….
On the same count and under the same terms, the value for chain 1 L12A was 0.000185 average fractional NGS count over selection days 2 and 3 (reads of this peptide / all reads for the bait, averaged over ….
On the same count and under the same terms, under chain 1 L12I stands 0.000166 average fractional NGS count over selection days 2 and 3 (reads of this peptide / all reads for the bait, averaged over ….
On the same count and under the same terms, the value for chain 1 F5T was 7.7e-05 average fractional NGS count over selection days 2 and 3 (reads of this peptide / all reads for the bait, averaged over ….

Variants of B2 are the subject of a further test. The test is described as above.
On to chain 1 L11M, for which the screen value was 0.000374 average fractional NGS count over selection days 2 and 3 (reads of this peptide / all reads for the bait, averaged over ….
For chain 1 L11G, the screen value is 0.000282 average fractional NGS count over selection days 2 and 3 (reads of this peptide / all reads for the bait, averaged over ….
chain 1 E3R: the screen value is 0.000973 average fractional NGS count over selection days 2 and 3 (reads of this peptide / all reads for the bait, averaged over ….
On the same count and under the same terms, under chain 1 E3Q stands 0.000394 average fractional NGS count over selection days 2 and 3 (reads of this peptide / all reads for the bait, averaged over ….
As for chain 1 E3L, the screen value was 0.00278 average fractional NGS count over selection days 2 and 3 (reads of this peptide / all reads for the bait, averaged over ….
Turning to chain 1 H12L, the screen value was 0.00133 average fractional NGS count over selection days 2 and 3 (reads of this peptide / all reads for the bait, averaged over ….
Take chain 1 H12R: the screen value was 0.000172 average fractional NGS count over selection days 2 and 3 (reads of this peptide / all reads for the bait, averaged over ….
chain 1 H12Y: the screen value was 0.000256 average fractional NGS count over selection days 2 and 3 (reads of this peptide / all reads for the bait, averaged over ….
chain 1 H12I: the screen value was 0.000636 average fractional NGS count over selection days 2 and 3 (reads of this peptide / all reads for the bait, averaged over ….
On the same count and under the same terms, the value for chain 1 H12S was 0.000155 average fractional NGS count over selection days 2 and 3 (reads of this peptide / all reads for the bait, averaged over …; that for chain 1 S14P was 0.000401 average fractional NGS count over selection days 2 and 3 (reads of this peptide / all reads for the bait, averaged over …; that for chain 1 S14A was 0.00151 average fractional NGS count over selection days 2 and 3 (reads of this peptide / all reads for the bait, averaged over ….
Take chain 1 S14I: the screen value is 0.000211 average fractional NGS count over selection days 2 and 3 (reads of this peptide / all reads for the bait, averaged over ….
Regarding chain 1 S14L, the screen value was 0.00127 average fractional NGS count over selection days 2 and 3 (reads of this peptide / all reads for the bait, averaged over ….
chain 1 S14K: the screen value is 0.000852 average fractional NGS count over selection days 2 and 3 (reads of this peptide / all reads for the bait, averaged over ….
Turning to chain 1 S9M, the screen value was 0.000276 average fractional NGS count over selection days 2 and 3 (reads of this peptide / all reads for the bait, averaged over ….
Still for that read-out and setting: under chain 1 S9T stands 0.000558 average fractional NGS count over selection days 2 and 3 (reads of this peptide / all reads for the bait, averaged over ….
Same read-out and setting: under chain 1 S9H stands 0.000148 average fractional NGS count over selection days 2 and 3 (reads of this peptide / all reads for the bait, averaged over …; under chain 1 S9D, 7.45e-05 average fractional NGS count over selection days 2 and 3 (reads of this peptide / all reads for the bait, averaged over …; under chain 1 P10G, 0.00227 average fractional NGS count over selection days 2 and 3 (reads of this peptide / all reads for the bait, averaged over ….
Still for that read-out and setting: under chain 1 P10N stands 0.00396 average fractional NGS count over selection days 2 and 3 (reads of this peptide / all reads for the bait, averaged over …; under chain 1 P10S, 0.00055 average fractional NGS count over selection days 2 and 3 (reads of this peptide / all reads for the bait, averaged over ….
Regarding chain 1 P10I, the screen value was 0.00026 average fractional NGS count over selection days 2 and 3 (reads of this peptide / all reads for the bait, averaged over ….
On to chain 1 T1S, for which the screen value was 0.00255 average fractional NGS count over selection days 2 and 3 (reads of this peptide / all reads for the bait, averaged over ….
Still for that read-out and setting: the value for chain 1 T1A was 0.00341 average fractional NGS count over selection days 2 and 3 (reads of this peptide / all reads for the bait, averaged over …; that for chain 1 T1M was 0.000328 average fractional NGS count over selection days 2 and 3 (reads of this peptide / all reads for the bait, averaged over ….
For chain 1 T1Q, the screen value is 0.00112 average fractional NGS count over selection days 2 and 3 (reads of this peptide / all reads for the bait, averaged over ….
On to chain 1 R4L, for which the screen value is 0.00628 average fractional NGS count over selection days 2 and 3 (reads of this peptide / all reads for the bait, averaged over ….
With chain 1 R4E, the screen value is 0.00181 average fractional NGS count over selection days 2 and 3 (reads of this peptide / all reads for the bait, averaged over ….
With chain 1 R4K, the screen value was 0.000222 average fractional NGS count over selection days 2 and 3 (reads of this peptide / all reads for the bait, averaged over ….
Take chain 1 R4T: the screen value is 0.000696 average fractional NGS count over selection days 2 and 3 (reads of this peptide / all reads for the bait, averaged over ….
On the same count and under the same terms, the value for chain 1 R4H was 0.00121 average fractional NGS count over selection days 2 and 3 (reads of this peptide / all reads for the bait, averaged over ….
The same measure, in the same setting: the value for chain 1 R4V was 0.00216 average fractional NGS count over selection days 2 and 3 (reads of this peptide / all reads for the bait, averaged over …; that for chain 1 Y8D was 0.00213 average fractional NGS count over selection days 2 and 3 (reads of this peptide / all reads for the bait, averaged over …; that for chain 1 Y8P was 0.000696 average fractional NGS count over selection days 2 and 3 (reads of this peptide / all reads for the bait, averaged over ….
Regarding chain 1 D2T, the screen value was 0.00067 average fractional NGS count over selection days 2 and 3 (reads of this peptide / all reads for the bait, averaged over ….
Same read-out and setting: the value for chain 1 D2Q was 0.00198 average fractional NGS count over selection days 2 and 3 (reads of this peptide / all reads for the bait, averaged over …; that for chain 1 D2P was 0.00102 average fractional NGS count over selection days 2 and 3 (reads of this peptide / all reads for the bait, averaged over ….
The same measure, in the same setting: under chain 1 W6R stands 0.000143 average fractional NGS count over selection days 2 and 3 (reads of this peptide / all reads for the bait, averaged over …; under chain 1 A15E, 0.00381 average fractional NGS count over selection days 2 and 3 (reads of this peptide / all reads for the bait, averaged over …; under chain 1 A15N, 0.000427 average fractional NGS count over selection days 2 and 3 (reads of this peptide / all reads for the bait, averaged over ….
chain 1 A15R: the screen value is 0.000696 average fractional NGS count over selection days 2 and 3 (reads of this peptide / all reads for the bait, averaged over ….
Same read-out and setting: under chain 1 A15T stands 0.00116 average fractional NGS count over selection days 2 and 3 (reads of this peptide / all reads for the bait, averaged over ….
The same measure, in the same setting: the value for chain 1 A15H was 0.000752 average fractional NGS count over selection days 2 and 3 (reads of this peptide / all reads for the bait, averaged over …; that for chain 1 S5Y was 0.000589 average fractional NGS count over selection days 2 and 3 (reads of this peptide / all reads for the bait, averaged over …; that for chain 1 Y13I was 0.00816 average fractional NGS count over selection days 2 and 3 (reads of this peptide / all reads for the bait, averaged over ….
On the same count and under the same terms, the value for chain 1 Y13T was 0.000772 average fractional NGS count over selection days 2 and 3 (reads of this peptide / all reads for the bait, averaged over ….
As for chain 1 Y13P, the screen value is 0.00124 average fractional NGS count over selection days 2 and 3 (reads of this peptide / all reads for the bait, averaged over ….
The same measure, in the same setting: the value for chain 1 V7N was 0.0129 average fractional NGS count over selection days 2 and 3 (reads of this peptide / all reads for the bait, averaged over …; that for chain 1 V7R was 0.00391 average fractional NGS count over selection days 2 and 3 (reads of this peptide / all reads for the bait, averaged over …; that for chain 1 V7S was 0.00114 average fractional NGS count over selection days 2 and 3 (reads of this peptide / all reads for the bait, averaged over ….
For the variant chain 1 V7Q, the screen value is 0.00122 average fractional NGS count over selection days 2 and 3 (reads of this peptide / all reads for the bait, averaged over ….
